Test results taken from patent US7148193B2, “Compounds that bind to growth hormone receptor” (Antyra, Inc., priority 1997, dated 2006).
Where a chain is given by its changes, count along the chain named.

How the values were obtained:
[1] = molecular target: T1, ‘hu’ GHBP (humanized rat GHBP) (Rattus norvegicus, UniProt P16310, L61R); experiment: Phage ELISA binding and competition on 'hu' GHBP coated wells; settings: ELISA signal; for ELISA Competition, ‘hu’GHBP, +BSA: BSA 1 μM; for ELISA Competition, ‘hu’GHBP, +hGH: huGH 1 μM as competitor; for ELISA Competition, ‘hu’GHBP, none: no competitor
T1 construct: 1–48 of GHBP; The 3′ oligo used for this reaction encoded the mutation L43R (CTG→AGA); The second PCR reaction amplified the DNA encoding amino acids 38–260; 6xHis; made in house
T1 sequence (P16310 19-278 isoform P16310-2 L61R): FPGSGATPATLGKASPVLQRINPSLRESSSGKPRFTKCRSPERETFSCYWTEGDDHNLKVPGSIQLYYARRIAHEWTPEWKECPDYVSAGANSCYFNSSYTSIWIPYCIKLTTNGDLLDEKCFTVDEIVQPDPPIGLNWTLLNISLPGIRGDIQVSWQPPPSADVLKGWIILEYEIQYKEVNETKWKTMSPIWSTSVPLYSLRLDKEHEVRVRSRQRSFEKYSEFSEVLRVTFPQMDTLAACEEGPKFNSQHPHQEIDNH
Method: For analysis of individual clones, colonies were picked and phage prepared as described above. Microtiter wells were coated and blocked as described above. Wells were coated with either rGHBP or a control IgG MAb. Phage resuspended in MPBS were added to duplicate wells (100 μl/well) and incubated at room temperature for 1 hr. The phage solution was then removed, and the wells were washed three times with PBS at room temperature. Anti-M13 antibody conjugated to horseradish peroxidase (Pharmacia Biotech) was diluted 1:3000 in MPBS and added to each well (100 μl/well). Incubation was for another hour at room temperature, followed by PBS washes as described. Color was developed by addition of ABTS solution (100 μl/well; Boehringer). Color development was stopped by adjusting each well to 0.5% SDS. Plates were analyzed at 405 nm using a SpectraMax 340 plate reader (Molecular Devices) and SoftMax Pro software. Data points were averaged after subtraction of appropriate blanks. A clone was considered “positive” if the A405 of the well was >2-fold over background.
Humanized GHBP (‘hu’ GHBP) contained the single amino acid change of rat GHBP amino acids L43 to R43, and was capable of binding human GH, as shown in FIG. 9. Direct immobilization of ‘hu’ GHBP was done as described earlier for panning of the secondary H5 library against rat GHBP and used inputs of ‘hu’ GHBP, prepared as described earlier of 100 μl per well of […] protein. Panning was performed with or without H10 peptide (SEQ ID NO:9; 30 μM) for 4 rounds, and 96 clones were picked.
(§1) Clones were tested for the presence of E-tag and binding to ‘hu’ GHBP, rGHBP, or BSA-coated wells. Those having specific GHBP binding (i.e., at least 2 fold greater binding to the GHBP than BSA) and with an E-tag positive signal were subjected to DNA sequencing. Three different clones were isolated and tested a second time against GHBP plus and minus GH (1 μM) or BSA (1 μM) coated wells as described. In these tests, huGH was used as competitor with ‘hu’ GHBP coated wells and bovineGH was used as a competitor with rat GHBP coated wells. […] The following open reading frame insertion including the DYKD (SEQ ID NO:79) amino terminal tag and up to the C-terminal E-tag was obtained for these clones; and is shown in Table III: […]

[2] = molecular target: T2, ‘hu’ GHBP (Rattus norvegicus, UniProt P16310, L61R); experiment: Species specificity of binding by ELISA and BIAcore, 'hu' GHBP; settings: in words
T2 construct: 1–48 of GHBP; The 3′ oligo used for this reaction encoded the mutation L43R (CTG→AGA); The second PCR reaction amplified the DNA encoding amino acids 38–260; 6xHis; made in house
T2 sequence (P16310 19-278 isoform P16310-2 L61R): T1 sequence (P16310 19-278 isoform P16310-2 L61R)
Method: (§2) Wells were coated with either recombinant rGHBP or ‘hu’ GHBP (100 ng/well). Additions of H5 (SEQ ID NO:8) and H10 (SEQ ID NOS:9, 80, and 81) phage (10^10/well) and detection were made as described. […] Streptavidin chips were coated with H5 (SEQ ID NO:8) to 1100 RU as described and rGHBP or ‘hu’ GHBP (500 μg/ml) injected as 30 μl samples.
(§3) Growth hormone receptors from different species bind human GH as well as their own GH, however human GHR only binds human or monkey GH. […] The sequence of rGHBP was altered by PCR to create a “humanized” version (‘hu’ GHBP; FIG. 9A). Partially purified ‘hu’GHBP (FIG. 9B) was tested for binding using ELISA and BIAcore analysis. […] This was confirmed by BIAcore analysis (FIG. 10B).
(§4) The biotinylated control peptide (SEQ ID NO:10) was immobilized onto one flow cell of a SA-5 (streptavidin coated) sensor chip to a final density of 700 RU. On a second flow cell, either hGH (1100 RU final density), H5WT peptide (SEQ ID NO:8; 1100 RU final density), or bGH (730 RU final density) was immobilized. GHBP (either rat or humanized) was injected at a concentration of 500 μg/ml with a flow rate of 5 μl/min. Background binding to the control surface was subtracted prior to further analysis.

[3] = molecular target: T3, rGHBP (Rattus norvegicus, UniProt P16310); experiment: Phage ELISA binding and competition on rGHBP coated wells; settings: for ELISA Competition, rGHBP, +BSA / ELISA Competition, rGHBP, +bGH / ELISA Competition, rGHBP, none: ELISA signal; for ELISA Competition, rGHBP, +BSA: BSA 1 μM; for ELISA Competition, rGHBP, none: no competitor; for clone binding blocked by GH: GH 1 μM, bovine GH on rat GHBP wells, huGH on ‘hu’ GHBP wells
T3 construct: 1–48 of GHBP; The 3′ oligo used for this reaction encoded the mutation L43R (CTG→AGA); The second PCR reaction amplified the DNA encoding amino acids 38–260; 6xHis; made in house
T3 sequence (P16310 19-278 isoform P16310-2): T1 sequence (P16310 19-278 isoform P16310-2 L61R) with R43L
Method: For analysis of individual clones, colonies were picked and phage prepared as described above. Microtiter wells were coated and blocked as described above. Wells were coated with either rGHBP or a control IgG MAb. Phage resuspended in MPBS were added to duplicate wells (100 μl/well) and incubated at room temperature for 1 hr. The phage solution was then removed, and the wells were washed three times with PBS at room temperature. Anti-M13 antibody conjugated to horseradish peroxidase (Pharmacia Biotech) was diluted 1:3000 in MPBS and added to each well (100 μl/well). Incubation was for another hour at room temperature, followed by PBS washes as described. Color was developed by addition of ABTS solution (100 μl/well; Boehringer). Color development was stopped by adjusting each well to 0.5% SDS. Plates were analyzed at 405 nm using a SpectraMax 340 plate reader (Molecular Devices) and SoftMax Pro software. Data points were averaged after subtraction of appropriate blanks. A clone was considered “positive” if the A405 of the well was >2-fold over background. […]
These clones were next analyzed for binding to the receptor's active sites (FIG. 2B). Competitions of phage binding were done both with the cognate ligand (i.e., GH) and with a specific target-neutralizing MAb 2C3 (Wang, B. S., et al. Mol. Cellular Endocrinology, vol. 116, p. 223–226, 1996).
as §1

[4] = molecular target: T3, rGHBP; experiment: Species specificity of binding by ELISA and BIAcore, rGHBP; settings: in words
Method: as §2, §3, §4

[5] = molecular target: T4, rat growth hormone receptor (Rattus norvegicus, UniProt P16310); experiment: Cell proliferation assay (WST-1) in FDC-1 cells stably transfected with rat growth hormone receptor; format: cell-based; settings: cells with 0.003 μM bovine GH, 18 h, at the concentrations tested
T4 construct: expressed in transfected cells; host or cells: FDC-1 cells
T4 sequence (P16310 19-638): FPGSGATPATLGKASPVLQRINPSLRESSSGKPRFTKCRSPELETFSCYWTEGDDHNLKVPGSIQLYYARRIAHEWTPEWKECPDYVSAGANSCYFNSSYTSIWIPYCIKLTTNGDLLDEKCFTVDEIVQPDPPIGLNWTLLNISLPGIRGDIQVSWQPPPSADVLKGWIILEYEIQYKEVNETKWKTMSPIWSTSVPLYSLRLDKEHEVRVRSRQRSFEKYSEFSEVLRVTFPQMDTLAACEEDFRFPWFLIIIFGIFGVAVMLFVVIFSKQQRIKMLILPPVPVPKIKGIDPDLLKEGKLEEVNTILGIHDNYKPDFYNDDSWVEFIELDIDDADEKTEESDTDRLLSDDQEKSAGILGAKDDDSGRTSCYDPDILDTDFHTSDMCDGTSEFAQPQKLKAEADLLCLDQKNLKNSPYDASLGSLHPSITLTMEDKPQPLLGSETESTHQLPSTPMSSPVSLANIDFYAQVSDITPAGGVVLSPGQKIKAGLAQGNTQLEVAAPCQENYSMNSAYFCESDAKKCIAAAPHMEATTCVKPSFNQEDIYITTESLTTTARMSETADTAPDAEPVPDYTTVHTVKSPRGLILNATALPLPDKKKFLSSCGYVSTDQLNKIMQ
Method: Cells transfected with rat GHR (50,000 cells per well) were incubated with either bovine GH, H5 peptide (SEQ ID NO:8), 447 peptide (SEQ ID NO:11) or control peptide (SEQ ID NO:10) for 18 h at 37° C. Experiments were done in triplicate. Background signal A450=0.15. […] Cells transfected with rat GHR (50,000 cells per well) containing […] bovine GH were incubated with either control peptide (SEQ ID NO:10), H5 peptide (SEQ ID NO:8) or 447 peptide (SEQ ID NO:11) for 18 h at 37° C. Proliferation was measured using WST-1 reagent. The “*” symbol corresponds to the A450 measurement for the cells incubated without GH.
Agonistic and antagonistic activities of the two peptides, H5WT (SEQ ID NO:8) and bP#447 ([…]), were tested in FDC-1 cells stably transfected with the gene encoding the rat growth hormone receptor. The resulting cell line required either IL-3 or GH for growth. The cells were grown in RPMI 1640 medium containing 10% FCS (fetal calf serum) and 20 units of IL-3 per ml. […] activity assays were performed in a total volume of 100 μl in 96 well plates (flat bottom). Cells were seeded at 50,000 cells/well in 50 μl RPMI 1640 (without IL-3) medium containing horse serum instead of FCS to reduce background. To duplicate wells, 50 μl of either growth hormone or peptides at different concentrations was added, followed by incubation for 18 h in a CO2 incubator. Assays to measure the antagonistic activity were performed in a total volume of 100 μl in 96 well plates. Either H5WT peptide (SEQ ID NO:8), bP#447 peptide (SEQ ID NO:11), or control peptide (SEQ ID NO:10) was added to cells containing 0.003 μM of bovine GH and incubated at 37° C. for 18 h in a CO2 incubator. Proliferation assays were performed using WST-1 reagent. The WST-1 tetrazolium salt (light red color) is cleaved to formazan (dark red color) by the succinate-tetrazolium reductase system, which is active only in viable cells. […] Ten microliters of WST-1 reagent was added and the plates incubated for 1–4 h 37° C. Proliferation was measured by absorbance at 450 nm.

Substance | ELISA Competition, ‘hu’GHBP, +BSA [1] | ELISA Competition, ‘hu’GHBP, +hGH [1] | ELISA Competition, ‘hu’GHBP, none [1] | binding to ‘hu’ GHBP [2] | ELISA Competition, rGHBP, +BSA [3] | ELISA Competition, rGHBP, +bGH ([3]; bovine GH 1 μM as competitor) | ELISA Competition, rGHBP, none [3] | clone binding blocked by GH [3] | binding to rGHBP [4] | binding to ‘hu’ GHBP ([2]; listed as clone 13) | ELISA Competition, rGHBP, +BSA ([3]; phage concentrated 15×) | ELISA Competition, rGHBP, +bGH ([3]; bovine GH 1 μM, phage concentrated 15×) | ELISA Competition, rGHBP, none ([3]; phage concentrated 15×) | binding to rGHBP ([4]; listed as clone 13) | antagonistic activity [5] | phage binding to rGHBP blocked by GH and MAb 2C3 ([3]; competition ELISA of phage binding)
DYKDALLHRSRCVRWGKWVCCLPPVGVGGAQANQGMSVQRFRHC (phage displayed; clone hh peptide) | 0.37 | 0.35 | 0.37 | bind to both forms of GHBP | 0.53 | 0.52 | 0.55 | only clone 13 was blocked by GH | bind to both forms of GHBP | – | – | – | – | – | – | –
DYKDAQWWTTlGSNMFVLPGLRGCTFLPPMQCDREIRVFLVVVH (DYKDAQWWTTIGSNMFVLPGLRGCTFLPPMQCDREIRVFLVVVH; phage displayed; clone 13 peptide) [compound 13] | – | – | – | bind to both forms of GHBP | – | – | – | blocked by GH | bind to both forms of GHBP | bound to both human and rat forms of GHBP | 1.98 | 0.29 | 2.01 | bound to both human and rat forms of GHBP | – | –
Control peptide: SEQ ID NO:10, contains same amino acids as H5 in randomized order (DYKDWCLTLQPLVWASGGGYCA; control peptide) [reference compound] | – | – | – | – | – | – | – | – | – | – | – | – | – | – | no antagonistic activity | –
H10: frame shifted phage clone without ORF, SEQ ID NOS:9, 80 and 81, binds rGHBP outside the active site (WLGCYFVAGVVACV; H10 peptide) | 0.29 | 0.28 | 0.30 | bound to rGHBP and ‘hu’ GHBP | 0.52 | 0.48 | 0.52 | – | bound to rGHBP | – | – | – | – | – | – | not blocked by either GH or MAb 2C3
